Laboratory results: paper PMC9181642

target: insulin receptor (mouse (endogenous in 3T3-L1)); assay: co-IP; lysates of differentiated, serum-deprived 3T3-L1 adipocytes, untreated or treated with 100 nM Ang II for 60 min (for PKCβII also 10 µM DuP 753 for 30 min before Ang II); lysis in 50 mM Tris-HCl, 150 mM NaCl, 1% Nonidet P-40, 10% glycerol, 2 mM EDTA, pH 7.4; IR precipitated with anti-IR-β polyclonal antibody and protein A/G PLUS-Agarose; blots probed with anti-PKCα, -βI, -βII or -δ and quantified by densitometry
Sequence (P15208 28-1372): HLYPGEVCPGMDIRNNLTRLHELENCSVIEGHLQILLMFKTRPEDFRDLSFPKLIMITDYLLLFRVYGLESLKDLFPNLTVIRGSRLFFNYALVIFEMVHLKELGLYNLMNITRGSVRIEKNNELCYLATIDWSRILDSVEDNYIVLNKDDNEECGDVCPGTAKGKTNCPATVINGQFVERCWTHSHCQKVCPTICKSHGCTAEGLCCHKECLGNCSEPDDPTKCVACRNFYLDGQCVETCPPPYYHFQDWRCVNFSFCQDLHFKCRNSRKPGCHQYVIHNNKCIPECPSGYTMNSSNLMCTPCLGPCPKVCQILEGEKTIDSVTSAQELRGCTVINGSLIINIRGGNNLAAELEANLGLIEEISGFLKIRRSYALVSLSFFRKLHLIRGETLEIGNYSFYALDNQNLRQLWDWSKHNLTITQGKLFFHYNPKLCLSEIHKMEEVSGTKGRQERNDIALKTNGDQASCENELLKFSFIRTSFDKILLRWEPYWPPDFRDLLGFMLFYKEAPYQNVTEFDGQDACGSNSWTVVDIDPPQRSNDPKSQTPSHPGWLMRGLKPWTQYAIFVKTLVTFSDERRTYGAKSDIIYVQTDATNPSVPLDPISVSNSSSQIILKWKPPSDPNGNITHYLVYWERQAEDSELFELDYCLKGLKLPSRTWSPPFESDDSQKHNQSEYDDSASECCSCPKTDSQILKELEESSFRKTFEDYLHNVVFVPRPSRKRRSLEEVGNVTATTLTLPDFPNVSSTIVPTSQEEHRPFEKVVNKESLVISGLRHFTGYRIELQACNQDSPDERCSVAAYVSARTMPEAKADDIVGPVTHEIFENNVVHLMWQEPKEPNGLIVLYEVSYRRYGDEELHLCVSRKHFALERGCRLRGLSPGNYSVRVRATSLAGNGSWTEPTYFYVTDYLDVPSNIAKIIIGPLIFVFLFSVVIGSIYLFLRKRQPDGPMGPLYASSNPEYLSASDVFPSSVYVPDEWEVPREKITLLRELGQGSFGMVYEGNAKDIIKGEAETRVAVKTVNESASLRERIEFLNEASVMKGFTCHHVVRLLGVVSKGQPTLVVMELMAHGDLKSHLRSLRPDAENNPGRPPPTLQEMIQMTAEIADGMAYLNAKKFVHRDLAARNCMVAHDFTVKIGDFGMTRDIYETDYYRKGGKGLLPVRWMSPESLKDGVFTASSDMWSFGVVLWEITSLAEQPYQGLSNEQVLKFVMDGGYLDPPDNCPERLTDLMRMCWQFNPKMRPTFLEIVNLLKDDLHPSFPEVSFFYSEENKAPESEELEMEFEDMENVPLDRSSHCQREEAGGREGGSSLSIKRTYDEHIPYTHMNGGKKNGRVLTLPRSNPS

| Substance | fold increase of the association with Ang II over control cells |
| --- | --- |
| PKCα (from UniProt P20444 1-672) (enzyme) | 2 fold |
| PKCδ (from UniProt P28867 1-674) (enzyme) | 1.5 fold |
| PKCβII (from UniProt P68404-2 1-673) (enzyme) | 4 fold |
| PKCβI (from UniProt P68404 1-671) (enzyme) | 1.2 fold |
